How the values were obtained:
[1] = biological target: LiRecT (RecT/Redβ family recombinase from the A118 prophage of Listeria innocua) (Listeria innocua); assay: native MS; free LiRecT without DNA at 30 µM, 100 mM ammonium acetate pH 7
[2] = biological target: T1, LiRecT WT (Listeria innocua CLIP 11262, UniProt Q92FL9 1-271); assay: native MS; 17 LiRecT:1:1; EMSA: PBS pH 7.4 (or KH2PO4/10 mM MgCl2 pH 6.0), 3.6 or 5 uM protein, 25 uM nt DNA, 37 C 15 min per strand, 0.8% agarose 1x TBE; cryo-EM: 20 mM KH2PO4 (Results: 10 mM), 10 mM MgCl2 pH 6.0, 37 C; native MS: 100 mM ammonium acetate pH 7, 37 C; conditions: protein: recombinant; tags: N-terminal 6His, thrombin-cleaved in main prep; chain copies: 10; blunt
T1 sequence: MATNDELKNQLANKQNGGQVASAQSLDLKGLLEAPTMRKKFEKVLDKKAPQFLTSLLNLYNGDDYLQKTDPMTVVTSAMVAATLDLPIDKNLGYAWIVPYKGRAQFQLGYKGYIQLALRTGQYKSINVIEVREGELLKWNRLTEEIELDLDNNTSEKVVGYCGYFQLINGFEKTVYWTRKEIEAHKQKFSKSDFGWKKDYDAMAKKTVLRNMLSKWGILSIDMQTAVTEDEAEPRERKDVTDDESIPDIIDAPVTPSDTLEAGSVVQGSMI

[3] = biological target: T1, LiRecT WT; assay: native MS; 17 LiRecT:2 DNA among species; EMSA: PBS pH 7.4 (or KH2PO4/10 mM MgCl2 pH 6.0), 3.6 or 5 uM protein, 25 uM nt DNA, 37 C 15 min per strand, 0.8% agarose 1x TBE; cryo-EM: 20 mM KH2PO4 (Results: 10 mM), 10 mM MgCl2 pH 6.0, 37 C; native MS: 100 mM ammonium acetate pH 7, 37 C; conditions: protein: recombinant; tags: N-terminal 6His, thrombin-cleaved in main prep; chain copies: 10; single strand
[4] = biological target: T1, LiRecT WT; assay: native MS; 16 LiRecT:1 DNA among species; EMSA: PBS pH 7.4 (or KH2PO4/10 mM MgCl2 pH 6.0), 3.6 or 5 uM protein, 25 uM nt DNA, 37 C 15 min per strand, 0.8% agarose 1x TBE; cryo-EM: 20 mM KH2PO4 (Results: 10 mM), 10 mM MgCl2 pH 6.0, 37 C; native MS: 100 mM ammonium acetate pH 7, 37 C; conditions: protein: recombinant; tags: N-terminal 6His, thrombin-cleaved in main prep; chain copies: 10; single strand
[5] = biological target: T1, LiRecT WT; assay: native MS; 1-2 fewer subunits than 83-mer complex; EMSA: PBS pH 7.4 (or KH2PO4/10 mM MgCl2 pH 6.0), 3.6 or 5 uM protein, 25 uM nt DNA, 37 C 15 min per strand, 0.8% agarose 1x TBE; cryo-EM: 20 mM KH2PO4 (Results: 10 mM), 10 mM MgCl2 pH 6.0, 37 C; native MS: 100 mM ammonium acetate pH 7, 37 C; conditions: protein: recombinant; tags: N-terminal 6His, thrombin-cleaved in main prep; chain copies: 10; blunt
[6] = biological target: T1, LiRecT WT; assay: EMSA; EMSA: PBS pH 7.4 (or KH2PO4/10 mM MgCl2 pH 6.0), 3.6 or 5 uM protein, 25 uM nt DNA, 37 C 15 min per strand, 0.8% agarose 1x TBE; cryo-EM: 20 mM KH2PO4 (Results: 10 mM), 10 mM MgCl2 pH 6.0, 37 C; native MS: 100 mM ammonium acetate pH 7, 37 C; conditions: protein: recombinant, tags: N-terminal 6His, thrombin-cleaved in main prep, chain copies: 10, single strand
[7] = biological target: T1, LiRecT WT; assay: native MS; 15 LiRecT:2 DNA among species; EMSA: PBS pH 7.4 (or KH2PO4/10 mM MgCl2 pH 6.0), 3.6 or 5 uM protein, 25 uM nt DNA, 37 C 15 min per strand, 0.8% agarose 1x TBE; cryo-EM: 20 mM KH2PO4 (Results: 10 mM), 10 mM MgCl2 pH 6.0, 37 C; native MS: 100 mM ammonium acetate pH 7, 37 C; conditions: protein: recombinant; tags: N-terminal 6His, thrombin-cleaved in main prep; chain copies: 10; single strand
[8] = biological target: T2, λ-Redβ (bacteriophage lambda, UniProt P03698 1-261); assay: EMSA; sequential addition; EMSA: PBS pH 7.4 (or KH2PO4/10 mM MgCl2 pH 6.0), 3.6 or 5 uM protein, 25 uM nt DNA, 37 C 15 min per strand, 0.8% agarose 1x TBE; cryo-EM: 20 mM KH2PO4 (Results: 10 mM), 10 mM MgCl2 pH 6.0, 37 C; native MS: 100 mM ammonium acetate pH 7, 37 C; conditions: protein: recombinant; label: 5'-Cy3;5'-Cy5; 49 bp, 1 nt 5' overhang at each end
T2 sequence: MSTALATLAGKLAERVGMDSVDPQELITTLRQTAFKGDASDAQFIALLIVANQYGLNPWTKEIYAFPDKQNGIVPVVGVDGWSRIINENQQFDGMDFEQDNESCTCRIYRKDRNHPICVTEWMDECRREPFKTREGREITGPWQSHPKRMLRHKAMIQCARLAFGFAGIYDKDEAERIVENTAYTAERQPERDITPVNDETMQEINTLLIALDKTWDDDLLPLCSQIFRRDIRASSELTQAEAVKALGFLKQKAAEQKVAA

[9] = biological target: T1, LiRecT WT; assay: as above; conditions: protein: recombinant; tags: N-terminal 6His, thrombin-cleaved in main prep; chain copies: 10; label: 5'-Cy3;5'-Cy5; 49 bp, 1 nt 5' overhang at each end
[10] = biological target: T1, LiRecT WT; assay: native MS; 17-18 LiRecT:1:1; EMSA: PBS pH 7.4 (or KH2PO4/10 mM MgCl2 pH 6.0), 3.6 or 5 uM protein, 25 uM nt DNA, 37 C 15 min per strand, 0.8% agarose 1x TBE; cryo-EM: 20 mM KH2PO4 (Results: 10 mM), 10 mM MgCl2 pH 6.0, 37 C; native MS: 100 mM ammonium acetate pH 7, 37 C; conditions: protein: recombinant; tags: N-terminal 6His, thrombin-cleaved in main prep; chain copies: 10; blunt
[11] = biological target: T1, LiRecT WT; assay: cryo-EM; 10 mM MgCl2, pH 6.0; EMSA: PBS pH 7.4 (or KH2PO4/10 mM MgCl2 pH 6.0), 3.6 or 5 uM protein, 25 uM nt DNA, 37 C 15 min per strand, 0.8% agarose 1x TBE; cryo-EM: 20 mM KH2PO4 (Results: 10 mM), 10 mM MgCl2 pH 6.0, 37 C; native MS: 100 mM ammonium acetate pH 7, 37 C; conditions: protein: recombinant; tags: N-terminal 6His, thrombin-cleaved in main prep; chain copies: 10; single strand

With “LiRecT (RecT/Redβ family recombinase from the A118 prophage of Listeria innocua) (natural protein)” the stoichiometry N [1] was less than 9.

B1: 80-/80+ annealed duplex (sequential) (dsDNA)
DNA 1: CATATTTAAAACATGTTGAGCTACAGCACCAGATTCAGCAATTAAGCTCTAAGCCATCCGCAAAAATGACCTCTTATCAA
DNA 2: TTGATAAGAGGTCATTTTTGCGGATGGCTTAGAGCTTAATTGCTGAATCTGGTGCTGTAGCTCAACATGTTTTAAATATG
B1: binds [2].

B2: 80+ (ssDNA)
DNA: TTGATAAGAGGTCATTTTTGCGGATGGCTTAGAGCTTAATTGCTGAATCTGGTGCTGTAGCTCAACATGTTTTAAATATG
B2: binds [3].

B3: 80- (ssDNA)
DNA: CATATTTAAAACATGTTGAGCTACAGCACCAGATTCAGCAATTAAGCTCTAAGCCATCCGCAAAAATGACCTCTTATCAA
B3: binds [3].

B4: 75- (ssDNA)
DNA: TTAAAACATGTTGAGCTACAGCACCAGATTCAGCAATTAAGCTCTAAGCCATCCGCAAAAATGACCTCTTATCAA
B4: binds [4].

B5: 75-/75+ annealed duplex (sequential) (dsDNA)
DNA 1: TTAAAACATGTTGAGCTACAGCACCAGATTCAGCAATTAAGCTCTAAGCCATCCGCAAAAATGACCTCTTATCAA
DNA 2: TTGATAAGAGGTCATTTTTGCGGATGGCTTAGAGCTTAATTGCTGAATCTGGTGCTGTAGCTCAACATGTTTTAA
B5: binds [5].

B6: Cy3-50mer (ssDNA)
DNA: GCGGATGGCTTAGAGCAGAATCGCCCTGCATAGCTCGATTTTTGCGGATG
B6: binds ([6]; label: 5'-Cy3).

B7: 75+ (ssDNA)
DNA: TTGATAAGAGGTCATTTTTGCGGATGGCTTAGAGCTTAATTGCTGAATCTGGTGCTGTAGCTCAACATGTTTTAA
B7: binds [7].

B8: Cy5-50mer (ssDNA)
DNA: CCATCCGCAAAAATCGAGCTATGCAGGGCGATTCTGCTCTAAGCCATCCG
B8: binds ([6]; label: 5'-Cy5).

B9: 50-mer duplex intermediate (sequential addition) (dsDNA)
DNA 1: GCGGATGGCTTAGAGCAGAATCGCCCTGCATAGCTCGATTTTTGCGGATG
DNA 2: CCATCCGCAAAAATCGAGCTATGCAGGGCGATTCTGCTCTAAGCCATCCG
B9: binds [8]; binds [9].

B10: 83-/83+ annealed duplex (sequential) (dsDNA)
DNA 1: TTGCATATTTAAAACATGTTGAGCTACAGCACCAGATTCAGCAATTAAGCTCTAAGCCATCCGCAAAAATGACCTCTTATCAA
DNA 2: TTGATAAGAGGTCATTTTTGCGGATGGCTTAGAGCTTAATTGCTGAATCTGGTGCTGTAGCTCAACATGTTTTAAATATGCAA
B10: binds [10].

B11: 83- (ssDNA)
DNA: TTGCATATTTAAAACATGTTGAGCTACAGCACCAGATTCAGCAATTAAGCTCTAAGCCATCCGCAAAAATGACCTCTTATCAA
B11: binds [11].

B12: 83+ (ssDNA)
DNA: TTGATAAGAGGTCATTTTTGCGGATGGCTTAGAGCTTAATTGCTGAATCTGGTGCTGTAGCTCAACATGTTTTAAATATGCAA
B12: binds [3].

Reference: publication PMC9772228, “Structure of a RecT/Redβ family recombinase in complex with a duplex intermediate of DNA annealing”
